Laboratory results as given in patent US20140235820A1, “METHODS AND COMPOSITIONS FOR MODULATING THE Wnt PATHWAY” (Genentech, Inc., priority 2010, published 2014).

What was measured:
[1] = target: T1, LRP6 E1E2 Asn185Ser (human, UniProt O75581 20-631); test: BLI steady-state affinity
T1 construct: range 20-631; also called LRP6 E1E2 N185S (analogue of LRP5 BMD mutation Asn198Ser)
T1 sequence (looked up): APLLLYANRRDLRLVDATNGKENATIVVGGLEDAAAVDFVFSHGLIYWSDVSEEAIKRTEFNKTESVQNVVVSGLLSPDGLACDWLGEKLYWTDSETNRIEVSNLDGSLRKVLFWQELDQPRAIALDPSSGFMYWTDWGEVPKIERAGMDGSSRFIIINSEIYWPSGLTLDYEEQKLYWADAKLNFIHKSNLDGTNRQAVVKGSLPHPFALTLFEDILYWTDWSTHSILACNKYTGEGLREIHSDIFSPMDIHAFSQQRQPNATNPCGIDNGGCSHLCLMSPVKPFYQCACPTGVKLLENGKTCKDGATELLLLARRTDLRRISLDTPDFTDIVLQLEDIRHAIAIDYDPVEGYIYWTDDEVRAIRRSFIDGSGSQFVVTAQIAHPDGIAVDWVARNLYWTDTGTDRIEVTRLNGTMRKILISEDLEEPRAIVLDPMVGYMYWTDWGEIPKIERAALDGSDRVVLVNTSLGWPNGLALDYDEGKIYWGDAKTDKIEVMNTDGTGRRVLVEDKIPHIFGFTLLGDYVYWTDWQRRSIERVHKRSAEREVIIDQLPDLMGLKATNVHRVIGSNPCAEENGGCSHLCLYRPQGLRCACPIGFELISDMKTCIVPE
Procedure: (§1) Binding kinetics were measured by biolayer interferometry using an Octet Red instrument (ForteBio) as previously described (11). Streptavidin (SA) biosensors were loaded with biotinylated hLRP6 in 50 mMTris, pH 8, 300 mM NaCl, 5% (v/v) glycerol, and 0.05% (w/v) Triton X-100. The loaded biosensors were washed in the same buffer before carrying out association and dissociation measurements for the indicated times. The Kd of each interaction was determined using steady state-analysis through the Octet Red software v6.3. Each reported value represents an average of three or more experiments at different concentrations, with a fitted experimental curve for which the square of the correlation coefficient (R²) is above 0.96.

[2] = target: T2, LRP6 E1E2 Arg141Met (human, UniProt O75581 20-631); test: BLI steady-state affinity
T2 construct: range 20-631; also called LRP6 E1E2 R141M
T2 sequence (looked up): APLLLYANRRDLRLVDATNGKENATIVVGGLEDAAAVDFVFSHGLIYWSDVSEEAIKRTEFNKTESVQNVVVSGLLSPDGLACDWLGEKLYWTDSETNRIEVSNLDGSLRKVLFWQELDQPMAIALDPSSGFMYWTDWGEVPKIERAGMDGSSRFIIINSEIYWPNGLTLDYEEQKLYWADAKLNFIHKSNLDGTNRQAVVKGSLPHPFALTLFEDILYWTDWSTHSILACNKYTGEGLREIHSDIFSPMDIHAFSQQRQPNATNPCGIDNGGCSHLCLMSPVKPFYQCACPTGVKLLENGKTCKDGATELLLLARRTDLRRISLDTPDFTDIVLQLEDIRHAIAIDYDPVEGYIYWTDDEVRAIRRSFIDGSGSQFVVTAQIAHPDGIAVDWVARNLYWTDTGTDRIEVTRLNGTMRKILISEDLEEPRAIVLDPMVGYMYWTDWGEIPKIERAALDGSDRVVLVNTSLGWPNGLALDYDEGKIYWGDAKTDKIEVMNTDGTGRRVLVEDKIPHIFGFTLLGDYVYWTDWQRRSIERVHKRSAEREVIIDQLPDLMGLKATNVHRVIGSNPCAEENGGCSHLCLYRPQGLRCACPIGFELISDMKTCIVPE
Procedure: as §1

[3] = target: T3, human LRP6 construct E4 (T933-Q1253) (human, UniProt O75581 933-1253, biotinylated for biolayer interferometry); test: BLI, biotinylated LRP6 on streptavidin tips
T3 construct: range 933-1253; also called LRP6 E4
T3 sequence (looked up): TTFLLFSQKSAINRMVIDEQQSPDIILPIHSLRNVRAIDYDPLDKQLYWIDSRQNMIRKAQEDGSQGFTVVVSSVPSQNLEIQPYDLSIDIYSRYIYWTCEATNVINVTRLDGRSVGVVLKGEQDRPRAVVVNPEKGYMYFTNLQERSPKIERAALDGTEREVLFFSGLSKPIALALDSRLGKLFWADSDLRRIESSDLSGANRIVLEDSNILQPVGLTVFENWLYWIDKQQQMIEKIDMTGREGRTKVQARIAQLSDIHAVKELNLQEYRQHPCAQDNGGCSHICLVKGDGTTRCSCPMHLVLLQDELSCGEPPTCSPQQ
Procedure: as §1
Purified receptors contained individual β-propeller-EGF-like units (E1, E2, or E4), two β-propellers (E1E2 or E3E4), or four β-propellers (E1E4))—as follows: […]

[4] = target: T4, human LRP6 construct E1E2 (amino acids A20-E631) (human, UniProt O75581 20-631, biotinylated for biolayer interferometry); test: BLI (Octet Red), biotinylated LRP6 on streptavidin tips, steady state
T4 construct: range 20-631; also called LRP6 E1E2
T4 sequence (looked up): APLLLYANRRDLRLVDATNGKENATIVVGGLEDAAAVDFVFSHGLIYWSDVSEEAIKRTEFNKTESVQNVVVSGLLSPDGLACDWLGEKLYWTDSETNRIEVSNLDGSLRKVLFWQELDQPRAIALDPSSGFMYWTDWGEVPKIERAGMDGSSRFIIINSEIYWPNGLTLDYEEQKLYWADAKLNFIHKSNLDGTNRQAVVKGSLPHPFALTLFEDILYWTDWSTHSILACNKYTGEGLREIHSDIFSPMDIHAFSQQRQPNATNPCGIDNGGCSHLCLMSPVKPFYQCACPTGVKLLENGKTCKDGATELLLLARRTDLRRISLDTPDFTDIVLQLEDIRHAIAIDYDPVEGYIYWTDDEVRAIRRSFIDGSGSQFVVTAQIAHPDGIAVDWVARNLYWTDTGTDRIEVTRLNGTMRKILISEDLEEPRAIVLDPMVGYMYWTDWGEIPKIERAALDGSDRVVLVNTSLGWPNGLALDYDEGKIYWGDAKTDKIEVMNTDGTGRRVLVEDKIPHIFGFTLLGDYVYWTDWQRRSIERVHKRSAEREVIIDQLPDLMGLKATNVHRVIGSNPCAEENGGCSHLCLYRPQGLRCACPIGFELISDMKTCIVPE
Procedure: as §1

[5] = target: T5, human LRP6 construct E3E4 (amino acids E631-Q1253) (human, UniProt O75581 631-1253, biotinylated for biolayer interferometry); test: as above
T5 construct: range 631-1253; also called LRP6 E3E4
T5 sequence (looked up): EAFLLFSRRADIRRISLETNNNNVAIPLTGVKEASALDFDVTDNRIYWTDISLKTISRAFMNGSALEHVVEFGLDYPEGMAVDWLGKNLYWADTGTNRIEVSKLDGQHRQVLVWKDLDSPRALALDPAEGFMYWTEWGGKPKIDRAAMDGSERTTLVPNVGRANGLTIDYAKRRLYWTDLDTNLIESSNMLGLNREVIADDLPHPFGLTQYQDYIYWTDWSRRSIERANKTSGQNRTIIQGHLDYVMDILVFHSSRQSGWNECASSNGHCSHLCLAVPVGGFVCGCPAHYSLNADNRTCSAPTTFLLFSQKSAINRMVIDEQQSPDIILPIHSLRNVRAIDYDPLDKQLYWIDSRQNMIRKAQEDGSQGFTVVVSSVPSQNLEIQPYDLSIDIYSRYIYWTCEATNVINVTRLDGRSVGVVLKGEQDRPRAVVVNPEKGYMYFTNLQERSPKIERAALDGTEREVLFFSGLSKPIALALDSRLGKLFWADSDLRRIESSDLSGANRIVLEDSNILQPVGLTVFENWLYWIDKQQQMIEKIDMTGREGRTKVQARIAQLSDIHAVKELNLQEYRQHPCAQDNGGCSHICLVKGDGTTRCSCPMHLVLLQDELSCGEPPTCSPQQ
Procedure: as §1

[6] = target: T6, human LRP6 construct E1 (amino acids A20-D325) (human, UniProt O75581 20-325); test: synthetic peptides, competition IC50 (FIG. 17A)
T6 construct: range 20-325; In the Fab crystal E1 arose from E1E2 degraded beyond Arg 335; residues Ala20 to Lys324 were traced; also called LRP6 E1; E1 domain
T6 sequence (looked up): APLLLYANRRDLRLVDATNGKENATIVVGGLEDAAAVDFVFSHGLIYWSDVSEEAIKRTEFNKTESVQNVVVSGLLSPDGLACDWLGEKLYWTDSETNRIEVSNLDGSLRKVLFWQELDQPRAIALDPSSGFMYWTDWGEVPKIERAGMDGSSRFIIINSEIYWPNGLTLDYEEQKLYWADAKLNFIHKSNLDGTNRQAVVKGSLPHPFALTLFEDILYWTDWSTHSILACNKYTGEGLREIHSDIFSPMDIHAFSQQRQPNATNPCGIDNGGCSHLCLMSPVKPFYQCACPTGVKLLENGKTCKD

B1: Dkk1 (wild type) (ligand, human, UniProt O94907 32-266, looked up)
chain: TLNSVLNSNAIKNLPPPLGGAAGHPGSAVSAAPGILYPGGNKYQTIDNYQPYPCAEDEECGTDEYCASPTRGGDAGVQICLACRKRRKRCMRHAMCCPGNYCKNGICVSSDQNHFRGEIEETITESFGNDHSTLDGYSRRTTLSSKMYHTKGQEGSVCLRSSDCASGLCCARHFWSKICKPVLKEGQVCTKHRRKGSHGLEIFQRCYCGEGLSCRIQKDHHQASNSSRLHTCQRH
notes: also called Dickkopf 1; human Dkk1
B1 was tested, and the “fold loss in affinity against wild-type LRP6 E1E2” value [1] was 183 fold, the “fold loss in affinity against wild-type LRP6 E1E2” value [2] was 29 fold and the binding result [3] was “no binding”. It also gave a Kd [4] of 22 nM and a Kd [5] of 51 nM.

AIKN [Dkk1 peptide lacking three residues from the N-terminus]: no binding [6].

NSNA [Dkk1 peptide lacking three residues from the C-terminus]: no binding [6].
